US7727739B2, “Methods for measuring enzyme activity” (GE Healthcare UK Limited, priority 2002, dated 2010)
Values belong to the molecule of their own block, whether it stands above or below them. Non-standard residues stand in square brackets, D forms with d. Residues, ends and D or L forms follow the SMILES beside them. No end group written: not given here. *: point of attachment. X1 = 6‑(9-oxo-9H-acridin-10-yl)hexanoyl, O=C(CCCCCn1c2ccccc2c(=O)c2ccccc21)*; Sta = CC(C)C[C@H](N)[C@@H](O)CC(=O)O; Phe(NO2) = nitro-phenylalanine; Isovaleryl = CC(C)CC(=O)*; Nva = CCC[C@H](N)C(=O)O

How the values were obtained:
[1] = Fluorescence lifetimes stated for labels and typical substrates; assay type: physicochemical; conditions: for lifetime of fluorescent label: free label; for lifetime of typical substrate: intact substrate, products 14 nano seconds
[2] = target: bovine kidney cathepsin D (bovine) (UniProt P80209); assay: cell-based or functional assay
[3] = target: pepsin; assay: cell-based or functional assay
[4] = Fluorescence lifetime of labelled substrate in protease assay buffers; assay type: physicochemical
Protocol: A no enzyme control (NEC) having 10 μl of buffer in place of enzyme was used. […] Since the lifetimes of substrate (10.3 ns) and product (13.8 ns) are different it was possible to monitor the appearance of product and disappearance of the substrate, the results are shown in FIG. 2.
A no enzyme control (NEC) having 10 μl of buffer in place of enzyme was used. […] Since the lifetimes of the substrate (11.5 ns) and product (14.5 ns) in Tris buffer are different it was possible to monitor the appearance of product and disappearance of the substrate, the results are shown in FIG. 3.
A no enzyme control (NEC) having 100 μl of buffer in place of enzyme was included.

[5] = target: pepsin (Homo sapiens, UniProt P0DJD7); assay: Inhibition of pepsin activity, fluorescence lifetime protease assay; assay type: biochemical; conditions: pepsin 0.5 ng; 0.1M citrate buffer pH3.6; FIG. 8; read-out: apparent IC50, pepsin digestion of the peptide substrate
Protocol: After incubation at ambient temperature, the fluorescence intensity and lifetime were recorded. Deconvolution using a non-linear least-squares analysis algorithm gave the fluorescence lifetimes.

[6] = Fluorescence lifetime of labelled peptides by time-correlated single photon counting; assay type: physicochemical; conditions: 100 nM in TNC-T buffer pH7.5; excited at 405 nm, detection at 450 nm
Protocol: The lifetime of this solution was determined (2 ml volume in a cuvette) by a time-correlated single photon counting technique (Edinburgh Analytical Instruments FL900CDT spectrometer). Samples were excited at 405 nm using a laser diode, detection being at 450 nm.
The labelled peptide (6-(9-oxo-9H-acridin-10-yl) hexanoic acid- RPKPVENvaWRK) (SEQ ID NO:3) was also diluted to 100 nM in TNC-T buffer and the lifetime was similarly recorded.

[7] = tested on: T1, 6-(9-oxo-9H-acridin-10-yl) hexanoyl-Ala-Ala-Phe-Phe-Ala-Ala-Tyr [AAFFAAY]
T1 sequence: AAFFAAY

[8] = tested on: T2, 6-(9-oxo-9H-acridin-10-yl) hexanoic acid-Arg-Pro-Lys-Pro-Val-Glu-Nva-Trp-Arg-Lys-NH2
T2 sequence: RPKPVEXWRK

[9] = tested on: T3, 6-(9-oxo-9H-acridin-10-yl) hexanoyl-CHLDIIW
T3 sequence: CHLDIIW

[10] = target: T4, 6-(9-oxo-9H-acridin-10-yl) hexanoic acid-AAFFAAF-nitro (not fully specified)
T4 chain: AAFFAAF

Sequence of bovine kidney cathepsin D (bovine) (P80209 45-390 limits assumed): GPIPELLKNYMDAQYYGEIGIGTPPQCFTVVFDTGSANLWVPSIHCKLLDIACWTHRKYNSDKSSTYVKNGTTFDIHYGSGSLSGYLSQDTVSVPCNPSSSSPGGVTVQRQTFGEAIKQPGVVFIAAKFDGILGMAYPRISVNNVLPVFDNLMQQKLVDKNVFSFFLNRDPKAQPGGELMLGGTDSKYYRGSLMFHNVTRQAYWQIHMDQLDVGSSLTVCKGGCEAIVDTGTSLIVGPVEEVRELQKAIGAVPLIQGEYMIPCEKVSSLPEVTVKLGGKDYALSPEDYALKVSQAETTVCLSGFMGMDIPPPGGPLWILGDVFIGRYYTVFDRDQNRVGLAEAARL
Sequence of pepsin (Homo sapiens, UniProt P0DJD7) (P0DJD7 63-388): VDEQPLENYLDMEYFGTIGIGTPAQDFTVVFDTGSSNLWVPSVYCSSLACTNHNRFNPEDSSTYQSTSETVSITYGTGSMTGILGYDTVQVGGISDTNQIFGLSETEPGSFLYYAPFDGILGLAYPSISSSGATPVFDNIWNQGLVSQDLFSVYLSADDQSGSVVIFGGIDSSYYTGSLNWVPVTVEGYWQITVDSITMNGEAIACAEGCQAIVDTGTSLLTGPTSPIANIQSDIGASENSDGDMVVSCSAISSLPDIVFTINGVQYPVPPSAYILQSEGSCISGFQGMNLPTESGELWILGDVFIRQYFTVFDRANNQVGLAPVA

- lifetime of fluorescent label [1]: 4 ns
Molecule: O=C(O)CCCCCNC(=O)c1cccc2c(=O)c3ccccc3[nH]c12 [6-(9-oxo-9H-acridin-4-carboxamido) hexanoic acid]

- cathepsin D enzyme activity at 12 nM pepstatin A against no inhibitor [2]: 5 fold
- inhibition of pepsin digestion of the labelled peptide substrate (fluorescence lifetime), apparent IC50 [3]: 0.88 nM
Molecule: Pepstatin A (peptide)

Molecule: 6-(9-oxo-9H-acridin-10-yl) hexanoyl-Ala-Ala-Phe-Phe-Ala-Ala-Tyr (X1-AAFFAAY) [acridone-labelled protease substrate peptide]
- fluorescence lifetime of substrate ([4]; 50 mM Tris buffer, pH7.8, 10 mM CaCl2): 11.5 ns
- fluorescence lifetime of substrate ([4]; 0.1M citrate buffer, pH3.6, 0.005% Tween-20): 10.3 ns
- lifetime of typical substrate [1]: 10 nano seconds

Molecule: 6-(9-oxo-9H-acridin-10-yl) hexanoyl- CHLDIIW (X1-CHLDIIW) [acridone-labelled Asp-n protease substrate]
- lifetime of typical substrate [1]: 10 nano seconds

Molecule: CC(C)CC(=O)N[C@H](C(=O)N[C@H](C(=O)N[C@@H](CC(C)C)[C@@H](O)CC(=O)N[C@@H](C)C(=O)N[C@@H](CC(C)C)[C@@H](O)CC(=O)O)C(C)C)C(C)C [Pepstatin A] (Isovaleryl-VV[Sta]A[Sta]-OH)
- IC50 [5]: 0.88 nM

- lifetime of fluorescent label [1]: 17 ns
Molecule: CC(=O)Nc1ccc2c(c1)c(=O)c1ccccc1n2CCCCCC(=O)O [6-(2-(acetamido)-9-oxo-9H-acridin-10-yl) hexanoic acid]

Molecule: 6-(9-oxo-9H-acridin-10-yl) hexanoic acid- RPKPVE (Arg-Pro-Lys-Pro-Val-Glu) (X1-RPKPVE) [acridone-labelled peptide without tryptophan]
- Lifetime (ns) [6]: 13.9 ns

Molecule: 6-(9-oxo-9H-acridin-10-yl) hexanoic acid- Arg-Pro-Lys-Pro-Val-Glu-Nva-Trp-Arg-Lys-NH2 (X1-RPKPVE[Nva]WRK-NH2; SMILES CCC[C@H](NC(=O)[C@H](CCC(=O)O)NC(=O)[C@@H](NC(=O)[C@@H]1CCCN1C(=O)[C@H](CCCCN)NC(=O)[C@@H]1CCCN1C(=O)[C@H](CCCNC(=N)N)NC(=O)CCCCCn1c2ccccc2c(=O)c2ccccc21)C(C)C)C(=O)N[C@@H](Cc1c[nH]c2ccccc12)C(=O)N[C@@H](CCCNC(=N)N)C(=O)N[C@@H](CCCCN)C(N)=O) [acridone-labelled MMP-3 substrate peptide]
- Lifetime (ns) [6]: 12.6 ns
- fluorescence lifetime of substrate ([4]; 50 mM Tris buffer pH 7.5, MMP-3 assay, FIG. 6): 10 ns
- lifetime of typical substrate [1]: 10 nano seconds

Molecule: chymotrypsin
- protease digestion of labelled substrate (fluorescence lifetime) [7]: it was possible to monitor the appearance of product and disappearance of the substrate

- lifetime of fluorescent label [1]: 14 ns
Molecule: O=C(O)CCCCCn1c2ccccc2c(=O)c2ccccc21 [6-(9-oxo-9H-acridin-10-yl) hexanoic acid]

- lifetime of fluorescent label [1]: 8 ns
Molecule: O=C(O)CCCCCn1c2ccccc2c(=O)c2cc(Br)ccc21 [6-(2-bromo-9-oxo-9H-acridin-10-yl) hexanoic acid]

Molecule: pepsin
- protease digestion of labelled substrate (fluorescence lifetime) [7]: it was possible to monitor the appearance of product and disappearance of the substrate

Molecule: Matrix Metalloproteinase 3
- protease digestion of labelled substrate (fluorescence lifetime) [8]: enzyme-dependant appearance of the product (14 ns lifetime species) and disappearance of the substrate (10 ns lifetime species)

Molecule: 6-(9-oxo-9H-acridin-10-yl) hexanoic acid- AAFFAAF-nitro (X1-AAFFAA[Phe(NO2)]; not fully specified) [acridone-labelled nitro-phenylalanine peptide, thermolysin substrate]
- fluorescence lifetime of substrate ([4]; PBS buffer, pH7, stretched exponential analysis): 2.5 ns

Molecule: Asp-n
- protease digestion of labelled substrate (fluorescence intensity and lifetime) [9]: illustrates the digestion of 6-(9-oxo-9H-acridin-10-yl) hexanoyl -CHLDIIW (SEQ ID NO:2) with Asp-n

B1: thermolysin (protein)
chain: ITGTSTVGVGRGVLGDQKNINTTYSTYYYLQDNTRGNGIFTYDAKYRTTLPGSLWADADNQFFASYDAPAVDAHYYAGVTYDYYKNVHNRLSYDGNNAAIRSSVHYSQGYNNAFWNGSQMVYGDGDGQTFIPLSGGIDVVAHELTHAVTDYTAGLIYQNESGAINEAISDIFGTLVEFYANKNPDWEIGEDVYTPGISGDSLRSMSDPAKYGDPDHYSKRYTGTQDNGGVHINSGIINKAAYLISQGGTHYGVSVVGIGRDKLGKIFYRALTQYLTPTSNFSQLRAAAVQSATDLYGSTSQEVASVKQAFDAVGVK
- protease digestion of labelled substrate (fluorescence lifetime) [10]: it was possible to monitor the appearance of product and disappearance of the substrate
